# Results published in paper PMC9388692, “Nuclear import of PTPN18 inhibits breast cancer metastasis mediated by MVP and importin β2” (Cell Death & Disease, 2022).
# T1: His-tagged importin β2 (UniProt Q92973 1-898)
# T1 construct: source: purified proteins
# T1 sequence (looked up): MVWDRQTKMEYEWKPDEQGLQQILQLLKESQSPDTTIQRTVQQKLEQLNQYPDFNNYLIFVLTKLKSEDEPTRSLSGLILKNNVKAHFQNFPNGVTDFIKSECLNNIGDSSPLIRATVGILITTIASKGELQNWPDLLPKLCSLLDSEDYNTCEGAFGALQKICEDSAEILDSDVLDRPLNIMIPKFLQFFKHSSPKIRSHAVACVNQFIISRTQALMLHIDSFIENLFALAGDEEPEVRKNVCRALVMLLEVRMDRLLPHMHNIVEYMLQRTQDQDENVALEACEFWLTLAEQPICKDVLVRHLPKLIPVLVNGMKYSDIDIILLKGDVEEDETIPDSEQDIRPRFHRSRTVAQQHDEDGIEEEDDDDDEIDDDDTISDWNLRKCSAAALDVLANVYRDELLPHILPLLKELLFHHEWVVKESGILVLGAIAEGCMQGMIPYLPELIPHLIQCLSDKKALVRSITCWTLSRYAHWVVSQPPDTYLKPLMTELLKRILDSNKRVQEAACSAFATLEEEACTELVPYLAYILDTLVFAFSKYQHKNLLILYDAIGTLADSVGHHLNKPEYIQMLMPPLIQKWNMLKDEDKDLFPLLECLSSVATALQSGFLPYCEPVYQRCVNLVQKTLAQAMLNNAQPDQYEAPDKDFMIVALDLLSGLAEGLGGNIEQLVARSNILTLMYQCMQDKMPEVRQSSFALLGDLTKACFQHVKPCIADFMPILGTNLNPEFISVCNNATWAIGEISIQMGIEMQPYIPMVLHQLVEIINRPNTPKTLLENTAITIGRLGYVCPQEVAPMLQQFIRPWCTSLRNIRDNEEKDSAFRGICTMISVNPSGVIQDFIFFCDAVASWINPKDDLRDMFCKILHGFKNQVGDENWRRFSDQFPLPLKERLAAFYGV
# B1: GST-tagged PTPN18 (natural protein, UniProt Q99952 1-460, looked up)
# chain: MSRSLDSARSFLERLEARGGREGAVLAGEFSDIQACSAAWKADGVCSTVAGSRPENVRKNRYKDVLPYDQTRVILSLLQEEGHSDYINGNFIRGVDGSLAYIATQGPLPHTLLDFWRLVWEFGVKVILMACREIENGRKRCERYWAQEQEPLQTGLFCITLIKEKWLNEDIMLRTLKVTFQKESRSVYQLQYMSWPDRGVPSSPDHMLAMVEEARRLQGSGPEPLCVHCSAGCGRTGVLCTVDYVRQLLLTQMIPPDFSLFDVVLKMRKQRPAAVQTEEQYRFLYHTVAQMFCSTLQNASPHYQNIKENCAPLYDDALFLRTPQALLAIPRPPGGVLRSISVPGSPGHAMADTYAVVQKRGAPAGAGSGTQTGTGTGTGARSAEEAPLYSKVTPRAQRPGAHAEDARGTLPGRVPADQSPAGSGAYEDVAGGAQTGGLGFNLRIGRPKGPRDPPAEWTRV
# notes: PTPN18 wild type, GST-tagged, for GST pull-down; also called PTPN18 WT; source: purified proteins
# How the values were obtained:
# [1] = target: T2, His-tagged MVP (UniProt Q14764 1-893); experiment: pull-down; GST pull-down with GST-tagged PTPN18 and His-tagged MVP; called a direct interaction, in vitro; settings: both partners purified
# T2 construct: MVP, His-tagged, for GST pull-down
# T2 sequence (Q14764 whole entry): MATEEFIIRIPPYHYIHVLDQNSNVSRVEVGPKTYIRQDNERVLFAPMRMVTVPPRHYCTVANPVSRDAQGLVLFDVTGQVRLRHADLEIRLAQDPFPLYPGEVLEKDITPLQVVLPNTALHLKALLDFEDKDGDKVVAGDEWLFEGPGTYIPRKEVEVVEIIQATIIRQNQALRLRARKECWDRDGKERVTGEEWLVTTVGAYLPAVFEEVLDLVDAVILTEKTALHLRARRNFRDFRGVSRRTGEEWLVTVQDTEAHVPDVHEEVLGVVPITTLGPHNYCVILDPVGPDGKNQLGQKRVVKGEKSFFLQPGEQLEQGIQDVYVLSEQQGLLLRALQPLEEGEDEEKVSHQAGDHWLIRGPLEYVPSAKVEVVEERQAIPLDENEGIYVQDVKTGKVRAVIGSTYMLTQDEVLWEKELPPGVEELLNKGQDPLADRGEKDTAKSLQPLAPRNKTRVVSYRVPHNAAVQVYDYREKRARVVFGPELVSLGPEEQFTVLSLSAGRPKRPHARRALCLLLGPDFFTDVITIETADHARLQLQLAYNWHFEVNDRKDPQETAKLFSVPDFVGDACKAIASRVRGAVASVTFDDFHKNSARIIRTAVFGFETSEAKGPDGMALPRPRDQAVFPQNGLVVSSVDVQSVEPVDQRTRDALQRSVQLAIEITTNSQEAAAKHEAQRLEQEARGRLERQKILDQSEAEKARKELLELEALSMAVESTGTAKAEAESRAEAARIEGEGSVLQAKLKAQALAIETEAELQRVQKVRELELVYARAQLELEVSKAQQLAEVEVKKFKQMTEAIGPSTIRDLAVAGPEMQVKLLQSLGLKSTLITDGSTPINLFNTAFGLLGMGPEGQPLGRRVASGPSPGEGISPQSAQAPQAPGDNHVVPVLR
# [2] = target: T1, His-tagged importin β2; experiment: pull-down; GST pull-down of GST-tagged PTPN18 and its NLS mutants with His-tagged importin β2; purified proteins, in vitro; settings: both partners purified
binder,measurement,setting,value
B1,binding result,[1],binds
same,binding result,[2],binds
